B1: BKO-3A9_b (antibody, human IgG4 S228P, lambda, V domains shown)
VH: QVQVQQSGPGLVKPSQTLSLTCAISGDSVSSNSAAWNWIRQSPSRGLEWLGRTYYRSKWYNDYAVSLKRRITIRPDTSRNHFSLHLSSVTPEDTAVYYCVRAYCGGGSCLDYWGQGTLVTVSS
VL: QSALTQPASASGSPGQSITISCTGTSSDVGNYNRVSWYQQHPGKVPKLMIYEGSKRPSGISNRFSGSKSGNTASLTISGLQPEDEADYFCCSYAGSNTLVFGGGTKLTVLG
notes: recombinant human IgG4 S228P, lambda
B2: BKO-1H3 (antibody, human IgG4 S228P, lambda, V domains shown)
VH: EVQLLESGGGLVQPGGSLRLSCAASGFTLSRSSTSWVRQTPGKGLEWVSAISGSGGRTYYADSVKGRFTISRDNSKNTLYLQMNSLRAEDTAVYYCAIQLGYWGQGILVTVSS
VL: QSALTQPASVSGSPGQSITISCTGTSSDVGGYNYVSWYQQHPGKAPKLMIYDVSNRPSGVSNRFSGSKSGNTASLTISGLQAEDEADYYCSSYTSSSTWVFGGGTKLTVLG
notes: as for B1
B3: BKO-1D1 (antibody, human IgG4 S228P, lambda, V domains shown)
VH: EVQLLESGGGLVQPGGSLRLSCAASKLTFKNSAMSWVRQAPGKGLEWVSAITGSGGRTYYADSVKGRFTISRDNSKNTLYLQMNSLRAEDTAIYYCAIQMGYWGQGILVTVSS
VL: QSALTQPPSASGSPGQSVTISCTGTSSDVGGYNYVSWYQQHPGKAPKLMIYEVNKRPSGVPARFSGSKSGNTASLTVSGLQAEDEADYYCSSYAGSNNFGVFGGGTKLTVLG
notes: as for B1
B4: BKO-2D8 (antibody, human IgG4 S228P, lambda, V domains shown)
VH: B2 VH with F27Y, L29F, S30T, R31S, S33T, T34M, T40A, S49T, S54R, Y102N
VL: B3 VL with V29I, M49V, K55M, S96N, N97D, T109S
notes: as for B1
B5: BKO-3D6 (antibody, human IgG4 S228P, lambda, V domains shown)
VH: EVQLVESGGDLVQPGRSLRLSCAASGFTFDDYAMHWVRQAPGKGLKWVSGITWNSGNKRYADSVKGRFTISRDNAKNSLYLQMNSLRAEDTALYYCAKDMKGSGTYFPAFDYWGQGTLVTVSS
VL: not shown
notes: as for B1
B6: BKO-1B10 (antibody, human IgG4 S228P, lambda, V domains shown)
VH: QLQLQESGPGLVKPSETLSLTCTVSGGSIRTSSYYWGWIRQPPGKGLEYIGSIYYSGTTYYNPSLKSRVTMSVDTSKNQFSLKLSSVTAADTAVYYCARHGRVREVPPFDYWGQGTLVTVSS
VL: SSELTQDPAVSVALGQTVRITCQGDSLRYYYASWYQQKPGQAPVLVIYDENSRPSGIPDRFSGSSSGNTASLRITGTQAEDEADYYCNSRDTSGNHWAFGGGTKLTVLG
notes: as for B1
B7: BKO-1A1 (antibody, human IgG4 S228P, lambda, V domains shown)
VH: B6 VH with L84M, T92S
VL: B6 VL with R73S
notes: as for B1
B8: BKO-4A8 variant VL N95aQ (antibody, human IgG4 S228P, lambda, V domains shown)
VH: B2 VH with L29F, R31S, S33T, T34M, T40A, S54R, G56R, R57N, K76R, L100M
VL: B3 VL with T23I, G43D, A62D, S96N, N98Q
notes: IgG4 S228P, lambda; parental heavy chain; also called 4A8 VL N95aQ

Positions count from the first letter of the chain named. Numbers in names are those of the source.

For the first experiment, the target named is T1, human CXCR2 (human, UniProt P25025 1-360).
T1 construct: also called CXC chemokine receptor 2; hCXCR2
T1 sequence: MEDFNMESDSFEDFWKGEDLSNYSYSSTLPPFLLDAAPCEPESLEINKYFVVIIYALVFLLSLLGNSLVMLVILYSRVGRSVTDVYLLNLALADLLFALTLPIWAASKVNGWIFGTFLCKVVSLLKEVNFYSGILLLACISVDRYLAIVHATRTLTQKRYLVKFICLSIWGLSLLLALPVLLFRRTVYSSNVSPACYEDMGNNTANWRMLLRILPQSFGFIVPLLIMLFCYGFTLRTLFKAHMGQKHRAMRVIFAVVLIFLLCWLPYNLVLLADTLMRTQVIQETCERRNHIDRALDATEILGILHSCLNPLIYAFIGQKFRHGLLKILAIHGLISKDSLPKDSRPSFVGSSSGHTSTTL
The experiment can be described thus: flow cytometry, transfected Expi293F cells. As to the method: (§1) Harvested cells were resuspended in FACS buffer (1×PBS+0.5% (w/v) bovine serum albumin (BSA)+2 mM EDTA pH 7.2). Approximately 2×10⁵ cells were added per well in a 96-well round-bottomed plate. Cells were pelleted by centrifugation at 400 g for 5 mins at 4° C. and supernatants discarded. 25 μL of each test antibody or control antibody was added to the cells and incubated for 30 minutes at 4° C. Cells were washed twice in 100 μL FACS buffer followed by centrifugation at 400 g for 5 mins at 4° C.
(§2) For detection, 50 μL of secondary antibody (Table 2) was added to relevant samples. Commercially available antibodies that bound to transfected CXCR family members were used as positive controls to ensure that the cells were expressing the receptors. Cells were washed twice in 200 μL of FACS buffer followed by centrifugation at 400 g for 5 mins at 4° C. Before sample acquisition, cells were resuspended in 100 μL of FACS buffer. Samples were acquired using the high throughput sampler on a FACSCanto™ II cytometer (Beckton-Dickinson).
(§3) These antibody variable regions were then generated by gene synthesis and subcloned into mammalian expression vectors as described in General Methods. Antibodies were produced by co-expression of heavy and light chain plasmids in Expi293F™ cells and purified by protein A column chromatography as described in General Methods. Where several heavy and/or light chains were identified from the same hybridoma cells, each heavy chain was paired with each light chain and the resulting antibodies given suffix a, b, c, etc. Purified antibodies were desalted into Sorensen's PBS pH 5.8 and tested by flow cytometry for binding to Expi293F™ cells transfected with human CXCR2 or human CXCR1 and mock transfected Expi293F™ cells.
Consider B1, for which the binding result is “binds”.
On the same count and under the same terms, with B2 the entry was “binds”.
Turning to B3, the binding result was “binds”.
Regarding B4, the binding result was “binds”.
Same read-out and setting: with B5 the entry was “binds”.
The same measure, in the same setting: with B6 the entry was “binds”.
As to B7, the binding result was “binds”.

A further experiment addresses T2, human CXCR1 (human, UniProt P25024 1-350).
T2 sequence: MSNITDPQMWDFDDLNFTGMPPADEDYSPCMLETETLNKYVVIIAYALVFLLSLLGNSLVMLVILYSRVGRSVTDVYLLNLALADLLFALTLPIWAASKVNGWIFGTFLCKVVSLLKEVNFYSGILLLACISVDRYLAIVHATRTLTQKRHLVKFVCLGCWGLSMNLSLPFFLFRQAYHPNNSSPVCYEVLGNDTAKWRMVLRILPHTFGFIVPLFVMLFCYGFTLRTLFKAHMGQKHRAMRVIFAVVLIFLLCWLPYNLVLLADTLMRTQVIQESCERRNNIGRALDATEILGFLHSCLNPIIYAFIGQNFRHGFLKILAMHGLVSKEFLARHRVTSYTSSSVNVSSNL
The experiment can be described thus: flow cytometry, transfected Expi293F cells. As to the method: as §1, §2, §3
As to B1, the binding result is on record as “no binding”.
Still for that read-out and setting: with B2 the entry was “no binding”.
On the same count and under the same terms, with B3 the entry was “no binding”; with B4, “no binding”.
Still for that read-out and setting: with B5 the entry was “no binding”; with B6, “no binding”; with B7, “no binding”.

The target of the next experiment is T1, human CXCR2. As to the kind of experiment: flow cytometry, CXCR2-transfected Expi293F cells.
With B8, the “Fold change in binding relative to BKO-4A8” value is 1 fold.

The target in a further experiment is T1, human CXCR2. As to the kind of experiment: cell-based or functional assay.
With B8, the “IC50, CXCL1, Tango assay” value stood at 0.213 nM and the “IC50, CXCL8, Tango assay” value stood at 0.084 nM.
